The target in test [1] is T1, anti-VEGF/ANG2 antibody (IgG1 subclass with mutations P329G/L234A/L235A/I253A/H310A/H435A).
T1 construct: Format of the bispecific antibody not described; Positions are EU numbers, not positions on the UniProt entry; also called sample 1; antibody 1
The test can be described thus: ELISA assay C, tracer FcγRI-Dig, target 25 ng/mL. On the technique in general: ELISA stands for enzyme-linked immunosorbent assay.

Test [2] deals with T2, anti-VEGF/ANG2 antibody (IgG1 subclass with mutations P329G/L234A/L235A).
T2 construct: Positions are EU numbers; also called sample 2; antibody 2
Kind of test: ELISA assay C, tracer FcγRI-Dig, target 25 ng/mL.

Test [3] has as its target T3, anti-P-Selectin antibody (IgG4 subclass with mutations S228P/L235E).
T3 construct: Positions are EU numbers; also called sample 4; antibody 4
Kind of test: ELISA assay C, tracer FcγRI-Dig, target 25 ng/mL.

In test [4] the target is T1, anti-VEGF/ANG2 antibody (IgG1 subclass …). The test can be described thus: ELISA assay B, tracer M1.7.10-Dig, target 2 ng/mL. The procedure:
(§1) Biotinylated anti-PG Fc-region antibody or biotinylated anti-AAA Fc-region antibody, respectively, was bound to the wells of a streptavidin-coated multi-well plate (SA-MTP) to produce a capture plate. Excess of unbound antibody was removed by washing. Sample/standard antibodies spiked in human and cynomolgus monkey serum (10% final concentration) was added to wells of the SA-MTP multi-well plate coated with the capture plate and incubated for 1 hour at room temperature. After washing, the wells were incubated with digoxygenylated anti-human kappa antibody M1.7.10 (see e.g. WO 2011/048043, incorporated herein by reference). After washing the bound digoxygenylated anti-human kappa antibody complex was incubated with a horseradish peroxidase (HRP) labelled anti-digoxygenin antibody. After another washing step, an ABTS solution was added to the wells and incubated. The product of the color reaction was measured by Elisa reader at 405 nm wavelength (reference wavelength: 490 nm). Absorbance values of each sample or standard were determined in triplicates.

In test [5] the target is T2, anti-VEGF/ANG2 antibody (IgG1 subclass …). Kind of test: ELISA assay B, tracer M1.7.10-Dig, target 2 ng/mL. The procedure:
as §1

The target of test [6] is T4, anti-IGF-1R antibody (IgG1 subclass with mutations I253A/H310A/H435A).
T4 construct: Positions are EU numbers; also called sample 3; antibody 3
Kind of test: ELISA assay B, tracer M1.7.10-Dig, target 2 ng/mL. On the procedure: as §1

Test [7] addresses T3, anti-P-Selectin antibody (IgG4 subclass …). Kind of test: ELISA assay B, tracer M1.7.10-Dig, target 2 ng/mL. The procedure:
as §1

The target in test [8] is T5, anti-VEGF/ANG2 antibody (wild-type IgG1 subclass) (UniProt P01857-1 1-330 = IgG part).
T5 construct: also called sample 5; antibody 5
Kind of test: ELISA assay B, tracer M1.7.10-Dig, target 2 ng/mL. On the procedure: as §1

Test [9] addresses T1, anti-VEGF/ANG2 antibody (IgG1 subclass …). Kind of test: ELISA assay B, tracer M1.7.10-Dig, target 6 ng/mL. The procedure: as §1
Test [10] concerns the target T2, anti-VEGF/ANG2 antibody (IgG1 subclass …). The test can be described thus: ELISA assay B, tracer M1.7.10-Dig, target 6 ng/mL. The procedure: as §1
The target in test [11] is T4, anti-IGF-1R antibody (IgG1 subclass …). Kind of test: ELISA assay B, tracer M1.7.10-Dig, target 6 ng/mL. The procedure: as §1
Test [12] concerns the target T3, anti-P-Selectin antibody (IgG4 subclass …). Kind of test: ELISA assay B, tracer M1.7.10-Dig, target 6 ng/mL. On the procedure: as §1
The target in test [13] is T5, anti-VEGF/ANG2 antibody (wild-type IgG1 …). The test can be described thus: ELISA assay B, tracer M1.7.10-Dig, target 6 ng/mL. The procedure: as §1
The target in test [14] is T1, anti-VEGF/ANG2 antibody (IgG1 subclass …). The test can be described thus: ELISA assay B, tracer M1.7.10-Dig, target 13 ng/mL. The procedure: as §1
In test [15] the target is T2, anti-VEGF/ANG2 antibody (IgG1 subclass …). Kind of test: ELISA assay B, tracer M1.7.10-Dig, target 13 ng/mL. The procedure:
as §1

For test [16], the target named is T4, anti-IGF-1R antibody (IgG1 subclass …). Kind of test: ELISA assay B, tracer M1.7.10-Dig, target 13 ng/mL. The procedure:
as §1

Test [17] deals with T3, anti-P-Selectin antibody (IgG4 subclass …). Kind of test: ELISA assay B, tracer M1.7.10-Dig, target 13 ng/mL. On the procedure: as §1
In test [18] the target is T5, anti-VEGF/ANG2 antibody (wild-type IgG1 …). The test can be described thus: ELISA assay B, tracer M1.7.10-Dig, target 13 ng/mL. The procedure:
as §1

The target in test [19] is T1, anti-VEGF/ANG2 antibody (IgG1 subclass …). The test can be described thus: ELISA assay C, tracer FcγRI-Dig, target 0 ng/mL (blank).
Test [20] deals with T2, anti-VEGF/ANG2 antibody (IgG1 subclass …). The test is described as above.
Test [21] concerns the target T4, anti-IGF-1R antibody (IgG1 subclass …). The test is described as above.
For test [22], the target named is T3, anti-P-Selectin antibody (IgG4 subclass …). The test is described as above.
In test [23] the target is T5, anti-VEGF/ANG2 antibody (wild-type IgG1 …). The test is described as above.

B1: anti-PG variant Fc-region antibody M1.3.17 (antibody, V domains shown)
VH: EVKLLESGGGLVQPGGSLKLSCAASGIDFRRYWMNWVRQAPGKGLEWIGEIDPDSSTINYTPSLKDKFIISRDNAKNTMYLQMRKVRSEDTALYYCARPYDYGAWFAYWGQGTLVTVSA
VL: QAVVTQESALTTSPGETVTLTCRSTTGAVTTSNYANWVQEKPDHLFTGLIGGTNKRAPGVPARFSGSLIGDKAALTITGAQTEDEAIYFCALWYSDHWVFGGGTKLTVL
notes: Monomeric, bivalent full-length antibody with murine variable domains; Biotinylated when used as capture antibody; also called anti-PG antibody clone 1.3.17; M1.3.17-Bi
For B1, the “signal [OD405 nm]” value in test [1] came out at 1.07 OD405 nm; in test [2], 1.21 OD405 nm; in [3] it was 1.17 OD405 nm; in test [4], 0.036 OD405 nm; in test [5] it was 0.125 OD405 nm; in test [6] it was 0.047 OD405 nm. In addition, the “signal [OD405 nm]” value in test [7] was determined as 0.049 OD405 nm; in test [8], 0.043 OD405 nm; in test [9], 0.035 OD405 nm; in [10], 0.196 OD405 nm; in test [11], 0.045 OD405 nm; in test [12], 0.048 OD405 nm. For the same molecule, the “signal [OD405 nm]” value is 0.046 OD405 nm in test [13]; 0.034 OD405 nm in [14]; 0.217 OD405 nm in [15]; 0.044 OD405 nm in test [16]; 0.047 OD405 nm in [17]; 0.042 OD405 nm in test [18]. For the same molecule, the “signal [OD405 nm]” value in test [19] stood at 1.18 OD405 nm; in test [20] it was 1.23 OD405 nm; in test [21], 1.22 OD405 nm; in [22], 1.19 OD405 nm; in test [23], 1.2 OD405 nm.

B2: anti-PG variant Fc-region antibody M1.7.24 (monomeric, bivalent) (antibody, V domains shown)
VH: EVKLLESGGGLVQPGGSLKLSCAASGFDFSRYWMNWVRQAPGKGLEWIGEITPDSSTINYTPSLKDKFIISRDNAKNTLYLQMIKVRSEDTALYYCVRPYDYGAWFASWGQGTLVTVSA
VL: QAVVTQESALTTSPGETVTLTCRSSTGAVTTSNYANWVQEKPDHLFTGLIGGTNKRAPGVPARFSGSLIGDKAALTITGAQTEDEAIYFCALWYSNHWVFGGGTKLTVL
notes: Full-length Y-shaped antibody with murine variable domains; Biotinylated when used as capture antibody; also called anti-PG antibody clone 1.7.24; M1.7.24-Bi
With B2, the “signal [OD405 nm]” value in test [1] turned out to be 0.082 OD405 nm; in [2] it was 0.083 OD405 nm; in [3], 0.07 OD405 nm; in test [4] it was 0.049 OD405 nm; in test [5], 1.73 OD405 nm; in test [6], 0.047 OD405 nm. Also, the “signal [OD405 nm]” value in [7] came to 0.033 OD405 nm; in test [8], 0.034 OD405 nm; in [9], 0.053 OD405 nm; in test [10], 2.98 OD405 nm; in test [11], 0.039 OD405 nm; in test [12], 0.037 OD405 nm. Further, the “signal [OD405 nm]” value in test [13] was 0.038 OD405 nm; in test [14] it was 0.053 OD405 nm; in test [15] it was 3.15 OD405 nm; in test [16], 0.043 OD405 nm; in test [17], 0.037 OD405 nm; in test [18], 0.04 OD405 nm. Besides, the “signal [OD405 nm]” value turned out to be 0.076 OD405 nm in test [19]; 0.092 OD405 nm in test [20]; 0.086 OD405 nm in test [21]; 0.076 OD405 nm in test [22]; 0.073 OD405 nm in test [23].

B3: anti-AAA variant Fc-region antibody M1.6.22 (antibody, V domains shown)
VH: EVQLVESGGDLVKPGGSLKLSCAASGFTFSSYGMSWVRQTPDKRLEWVATISSGGSYIYYPDSVKGRFTISRDNAKNTLYLQMSSLKSEDTAMYYCARLGMITTGYAMDYWGQGTSVTVSS
VL: DVLMTQTPLSLPVSLGDQASISCRSSQTIVHSTGHTYLEWFLQKPGQSPKLLIYKVSNRFSGVPDRFSGSGSGTDFTLKISRVEAEDLGVYYCFQGSHVPYTFGGGTKLEIK
notes: Murine variable domains; also called M1.6.22-Bi
As to B3, the “signal [OD405 nm]” value in [1] was determined as 0.081 OD405 nm; in test [2], 0.063 OD405 nm; in [3], 0.06 OD405 nm; in test [4], 0.041 OD405 nm; in [5] it was 0.041 OD405 nm; in [6], 1.48 OD405 nm. Besides, the “signal [OD405 nm]” value in test [7] was 0.032 OD405 nm; in test [8] it was 0.036 OD405 nm; in test [9], 0.039 OD405 nm; in test [10], 0.053 OD405 nm; in test [11], 2.73 OD405 nm; in test [12], 0.04 OD405 nm. The “signal [OD405 nm]” value amounted to 0.039 OD405 nm in test [13]; 0.041 OD405 nm in [14]; 0.066 OD405 nm in test [15]; 2.85 OD405 nm in test [16]; 0.042 OD405 nm in test [17]; 0.046 OD405 nm in [18]. Moreover, the “signal [OD405 nm]” value came to 0.077 OD405 nm in test [19]; 0.064 OD405 nm in [20]; 0.069 OD405 nm in [21]; 0.077 OD405 nm in [22]; 0.069 OD405 nm in test [23].
